Results published in US20250011410A1 (INVETX, published 2025).

B1: felinized clone 101 Fab-SASA variant Y101H (VH) (Fab, V domains shown, not shown: small tags and cut ends)
VH: DVQLVESGGDLVKPGGSLRLTCVASGLSLTSSSMSWVRQAPGKGLQWVSTIYSNGGTYYTDSVKGRFTISKDNAENTLYLQMNNLKTEDTATYYCASIYYHDADYLHWYFDFWGQGALVTVSS
VL: EIQMTQSPTSLSASVGDRVTITCRASEGISNNLSWYQQTPGKAPKLLIYATSNLHSGVPSRFSGSGSGTDFTLTISSLQPEDFATYYCQQGYKWPLTFGGGTKLEITR
B2: felinized clone 101 Fab-SASA variant Y58D (VH) (Fab, V domains shown, not shown: small tags and cut ends)
VH: DVQLVESGGDLVKPGGSLRLTCVASGLSLTSSSMSWVRQAPGKGLQWVSTIYSNGGTDYTDSVKGRFTISKDNAENTLYLQMNNLKTEDTATYYCASIYYYDADYLHWYFDFWGQGALVTVSS
VL: EIQMTQSPTSLSASVGDRVTITCRASEGISNNLSWYQQTPGKAPKLLIYATSNLHSGVPSRFSGSGSGTDFTLTISSLQPEDFATYYCQQGYKWPLTFGGGTKLEITR
B3: felinized clone 101 Fab-SASA variant Y99F (VH) (Fab, V domains shown, not shown: small tags and cut ends)
VH: DVQLVESGGDLVKPGGSLRLTCVASGLSLTSSSMSWVRQAPGKGLQWVSTIYSNGGTYYTDSVKGRFTISKDNAENTLYLQMNNLKTEDTATYYCASIFYYDADYLHWYFDFWGQGALVTVSS
VL: EIQMTQSPTSLSASVGDRVTITCRASEGISNNLSWYQQTPGKAPKLLIYATSNLHSGVPSRFSGSGSGTDFTLTISSLQPEDFATYYCQQGYKWPLTFGGGTKLEITR
B4: AHF17591 (Fab, V domains shown, not shown: small tags and cut ends)
VH: DVQLVESGGDLVKPGGSLRLTCVASGLSLTSSSMVWVRQAPGKGLQWVSTIYSNRGTYYTDSVKGRFTISKDNAENTLYLQMNNLKTEDTATYYCASIYYYDADYLHWYFDEWGQGALVTVSS
VL: EIQMTQSPTSLSASVGDRVTITCRASEGIANNLSWYQQTPGKAPKLLIYATSILHSGVPSRFSGSGSGTDFTLTISSLQPEDFATYYCQQGYKWPLTFGGGTKLEITR
B5: AHF17598 (Fab, V domains shown, not shown: small tags and cut ends)
VH: DVQLVESGGDLVKPGGSLRLTCVASGLSLTSSSMVWVRQAPGKGLQWVSTIYSNRGTYYTDSVKGRFTISKDNAENTLYLQMNNLKTEDTATYYCASIYYYDADYLHWYFDEWGQGALVTVSS
VL: EIQMTQSPTSLSASVGDRVTITCRASEGIANNLSWYQQTPGKAPKLLIYATSILHSGVPSRFSGSGSGTDFTLTISSLQPEDFATYYCQQGYKWPLTFGGGTKLEITR
B6: AHF17592 (Fab, V domains shown, not shown: small tags and cut ends)
VH: DVQLVESGGDLVKPGGSLRLTCVASGLSLTSSSMVWVRQAPGKGLQWVSTIYSNRGTYYTDSVKGRFTISKDNAENTLYLQMNNLKTEDTATYYCASIYYYDADYLHWYFDFWGQGALVTVSS
VL: EIQMTQSPTSLSASVGDRVTITCRASEGISNNLSWYQQTPGKAPKLLIYATSVLHSGVPSRFSGSGSGTDFTLTISSLQPEDFATYYCQQGYKWPLTFGGGTKLEITR
B7: AHF17596 (Fab, V domains shown, not shown: small tags and cut ends)
VH: DVQLVESGGDLVKPGGSLRLTCVASGLSLTSSSMVWVRQAPGKGLQWVSTIYSNRGTYYTDSVKGRFTISKDNAENTLYLQMNNLKTEDTATYYCASIYYYDADYLHWYFDFWGQGALVTVSS
VL: EIQMTQSPTSLSASVGDRVTITCRASEGIANNLSWYQQTPGKAPKLLIYATSVLHSGVPSRFSGSGSGTDFTLTISSLQPEDFATYYCQQGYKWPLTFGGGTKLEITR
B8: AHF17593 (Fab, V domains shown, not shown: small tags and cut ends)
VH: DVQLVESGGDLVKPGGSLRLTCVASGLSLTSSSMVWVRQAPGKGLQWVSTIYSNRGTYYTDSVKGRFTISKDNAENTLYLQMNNLKTEDTATYYCAQIYYYDADYLHWYFDFWGQGALVTVSS
VL: EIQMTQSPTSLSASVGDRVTITCRASEGIANNLSWYQQTPGKAPKLLIYATSVLHSGVPSRFSGSGSGTDFTLTISSLQPEDFATYYCQQGYKWPLTFGGGTKLEITR
notes: Fab-SASA, combinatorial library
B9: AHF17600 (Fab, V domains shown, not shown: small tags and cut ends)
VH: DVQLVESGGDLVKPGGSLRLTCVASGLSLTSSSMVWVRQAPGKGLQWVSTIYSNRGTYYTDSVKGRFTISKDNAENTLYLQMNNLKTEDTATYYCASIYYYDADYLHWYFDFWGQGALVTVSS
VL: EIQMTQSPTSLSASVGDRVTITCRASEGISNNLSWYQQTPGKAPKLLIYATSVLHSGVPSRFSGSGSGTDFTLTISSLQPEDFATYYCQQGYKWPLTFGGGTKLEITR
B10: AHF17599 (Fab, V domains shown, not shown: small tags and cut ends)
VH: DVQLVESGGDLVKPGGSLRLTCVASGLSLTSSSMVWVRQAPGKGLQWVSTIYSNRGTYYTDSVKGRFTISKDNAENTLYLQMNNLKTEDTATYYCASIYYYDADYLHWYFDFWGQGALVTVSS
VL: EIQMTQSPTSLSASVGDRVTITCRASEGIANNLSWYQQTPGKAPKLLIYATSVLHSGVPSRFSGSGSGTDFTLTISSLQPEDFATYYCQQGYKWPLTFGGGTKLEITR
B11: AHF17594 (Fab, V domains shown, not shown: small tags and cut ends)
VH: DVQLVESGGDLVKPGGSLRLTCVASGLSLTSSSMVWVRQAPGKGLQWVSTIYSNGGTYYTDSVKGRFTISKDNAENTLYLQMNNLKTEDTATYYCASIYYYDADYLHWYFDFWGQGALVTVSS
VL: EIQMTQSPTSLSASVGDRVTITCRASEGIANNLSWYQQTPGKAPKLLIYATSVLHSGVPSRFSGSGSGTDFTLTISSLQPEDFATYYCQQGYKWPLTFGGGTKLEITR
B12: AHF17595 (Fab, V domains shown, not shown: small tags and cut ends)
VH: DVQLVESGGDLVKPGGSLRLTCVASGLSLTSSSMVWVRQAPGKGLQWVSTIYSNRGTYYTDSVKGRFTISKDNAENTLYLQMNNLKTEDTATYYCASIYYYDADYLHWYFDEWGQGALVTVSS
VL: EIQMTQSPTSLSASVGDRVTITCRASEGIQNNLSWYQQTPGKAPKLLIYATSNLHSGVPSRFSGSGSGTDFTLTISSLQPEDFATYYCQQGYKWPLTFGGGTKLEITR
B13: AHF17597 (Fab, V domains shown, not shown: small tags and cut ends)
VH: DVQLVESGGDLVKPGGSLRLTCVASGLSLTSSSMVWVRQAPGKGLQWVSTIYSNRGTYYTDSVKGRFTISKDNAENTLYLQMNNLKTEDTATYYCASIYYYDADYLHWYFDFWGQGALVTVSS
VL: EIQMTQSPTSLSASVGDRVTITCRASEGIQNNLSWYQQTPGKAPKLLIYATSILHSGVPSRFSGSGSGTDFTLTISSLQPEDFATYYCQQGYKWPLTFGGGTKLEITR

molecular target: T1, canine NGF tagged at the C-terminus with the Flag tag (canine, UniProt A0A8I3PYI3 122-241); assay: SPR off-rate screen, Fab-SASA on BSA chip
T1 construct: mature; Expressed with baculovirus technology; also called feline NGF (processed form identical)
T1 sequence (A0A8I3PYI3 entry or part of it): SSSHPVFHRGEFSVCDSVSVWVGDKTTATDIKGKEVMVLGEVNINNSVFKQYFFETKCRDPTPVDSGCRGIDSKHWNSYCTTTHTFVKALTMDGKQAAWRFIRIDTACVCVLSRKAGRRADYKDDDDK

With B1 as the binder, how does the Kd read?
The Kd was 1.62 nM.

And the “Ratio WT-kd/clone-kd” value?
Its value is 1.9.

And the koff?
The koff was 0.000496 s⁻¹.

What about the kon of the same binder?
The kon was 307000 M⁻¹ s⁻¹.

How did the Kd turn out when B2 was run?
Its Kd is 1.47 nM.

And the “Ratio WT-kd/clone-kd” value?
The value was 1.68.

And the koff?
The koff was 0.000562 s⁻¹.

And the kon?
Its kon is 381000 M⁻¹ s⁻¹.

Which results are given for B3?
Kd: 1.46 nM; Ratio WT-kd/clone-kd: 2.01; koff: 0.000469 s⁻¹; kon: 321000 M⁻¹ s⁻¹

molecular target: T1, canine NGF tagged at the C-terminus …; assay: SPR off-rate assay, Fab-SASA on BSA chip

How did the Kd turn out when B4 was run?
Its Kd is no more than 0.00373 nM.

And the “Ratio (KD) WT/clones” value?
Its value is 926.

And the “Ratio (kd) WT/clones” value?
The value was 1680.

And the koff?
The koff was no more than 1e-06 s⁻¹.

And the kon?
The kon was 268000 M⁻¹ s⁻¹.

How did the Kd turn out when B5 was run?
The Kd was 0.179 nM.

What about the “Ratio (KD) WT/clones” value of the same binder?
Its value is 19.3.

And the “Ratio (kd) WT/clones” value?
Its value is 32.1.

And the koff?
The koff was 5.25e-05 s⁻¹.

And the kon?
Its kon is 294000 M⁻¹ s⁻¹.

Which results are given for B6?
Kd: 0.0761 nM; Ratio (KD) WT/clones: 45.4; Ratio (kd) WT/clones: 115; koff: 1.46e-05 s⁻¹; kon: 192000 M⁻¹ s⁻¹

With B7 as the binder, how does the Kd read?
The Kd was 0.0802 nM.

And the “Ratio (KD) WT/clones” value?
Its value is 43.1.

What about the “Ratio (kd) WT/clones” value of the same binder?
The value was 92.6.

And the koff?
Its koff is 1.82e-05 s⁻¹.

What about the kon of the same binder?
Its kon is 227000 M⁻¹ s⁻¹.

How did the Kd turn out when B8 was run?
Its Kd is no more than 0.00613 nM.

What about the “Ratio (KD) WT/clones” value of the same binder?
Its value is 563.

What about the “Ratio (kd) WT/clones” value of the same binder?
Its value is 1680.

And the koff?
The koff was no more than 1e-06 s⁻¹.

What about the kon of the same binder?
Its kon is 163000 M⁻¹ s⁻¹.

With B9 as the binder, how does the Kd read?
Its Kd is 0.329 nM.

What about the “Ratio (KD) WT/clones” value of the same binder?
Its value is 10.5.

What about the “Ratio (kd) WT/clones” value of the same binder?
The value was 29.

And the koff?
Its koff is 5.81e-05 s⁻¹.

And the kon?
Its kon is 177000 M⁻¹ s⁻¹.

What does the source list for B10?
Kd: ≤ 0.00472 nM; Ratio (KD) WT/clones: 732; Ratio (kd) WT/clones: 1680; koff: ≤ 1e-06 s⁻¹; kon: 212000 M⁻¹ s⁻¹

Which Kd does the source give for B11 here?
Its Kd is 0.931 nM.

And the “Ratio (KD) WT/clones” value?
The value was 3.71.

And the “Ratio (kd) WT/clones” value?
The value was 5.14.

What about the koff of the same binder?
The koff was 0.000328 s⁻¹.

What about the kon of the same binder?
The kon was 353000 M⁻¹ s⁻¹.

Which results are given for B12?
Kd: ≤ 0.00562 nM; Ratio (KD) WT/clones: 615; Ratio (kd) WT/clones: 1680; koff: ≤ 1e-06 s⁻¹; kon: 178000 M⁻¹ s⁻¹

B13 was tested. Which Kd did it give?
The Kd was 0.0544 nM.

What about the “Ratio (KD) WT/clones” value of the same binder?
The value was 63.5.

And the “Ratio (kd) WT/clones” value?
The value was 156.

And the koff?
The koff was 1.08e-05 s⁻¹.

What about the kon of the same binder?
Its kon is 199000 M⁻¹ s⁻¹.
